Laboratory results published in patent US20220153847A1 (Chugai, published 2022).

Target: HLA-DQ2.5/33mer gliadin peptide on IHW9088 cells (human)
Test: cell-based or functional assay

B1: DQN0139bb//IC17 (bispecific antibody, human IgG1, kappa)
heavy 1: QSLEESGGRLVTPGTALTLTCTVSGFSLSSYAMGWVRQAPGKGLEYIGWTSPGDSAYYASWTKGRFTISRTSTTVELKITSPTTEDTATYFCARDAAYIGHWAFNLWGPGTLVTVSSASTKGPSVFPLAPSSKSTSGGTAALGCLVKDYFPEPVTVSWNSGALTSGVHTFPAVLQSSGLYSLSSVVTVPSSSLGTQTYICNVNHKPSNTKVDKRVEPKSCDKTHTCPPCPAPELRRGPSVFLFPPKPKDTLMISRTPEVTCVVVDVSHEDPEVKFNWYVDGVEVHNAKTKPREEQYNSTYRVVSVLTVLHQDWLNGKEYKCKVSNKALPAPIEKTISKAKGQPREPQVYTLPPSREEMTKNQVSLTCLVKGFYPSDIAVEWESNGQPENNYKTTPPYLDSDGSFFLYSKLTVDKSRWQQGNVFSCSVMHEALHNHYTQESLSLSP
light 1: DVVMTQTPASVSAPVGGTVTINCQASESIYSNLAWYQQKPGQPPKLLIYGASTLESGVPSRVKGSGYGTQFTLTISDLECADAATYYCQQYYGSSSTAFTFGGGTKVEIKRTVAAPSVFIFPPSDEQLKSGTASVVCLLNNFYPREAKVQWKVDNALQSGNSQESVTEQDSKDCTYSLSSTLTLSKADYEKHKVYACEVTHQGLSSPVTKSFNRGEC
heavy 2: QVQLQQSGPQLVRPGASVKISCKASGYSFTSYWMHWVNQRPGQGLEWIGMIDPSYSETRLNQKFKDKATLTVDKSSSTAYMQLSSPTSEDSAVYYCALYGNYFDYWGQGTTLTVSSASTKGPSVFPLAPSSKSTSGGTAALGCLVKDYFPEPVTVSWNSGALTSGVHTFPAVLQSSGLYSLSSVVTVPSSSLGTQTYICNVNHKPSNTKVDKRVEPKSCDKTHTCPPCPAPELRRGPSVFLFPPKPKDTLMISRTPEVTCVVVDVSHEDPEVKFNWYVDGVEVHNAKTKPREEQYNSTYRVVSVLTVLHQDWLNGKEYKCKVSNKALPAPIEKTISKAKGQPREPQVYTLPPSRKEMTKNQVSLTCLVKGFYPSDIAVEWESNGQPENNYKTTPPYLDSDGSFFLYSKLTVDKSRWQQGNVFSCSVMHEALHNHYTQKSLSLSP
light 2: DIQMTQSSSSFSVSLGDRVTITCKASEDIYNRLAWYQQKPGNAPRLLISGATSLETGVPSRFSGSGSGKDYTLSITSLQTEDVATYYCQQYWSTPYTFGGGTKLEVKRTVAAPSVFIFPPSDEQLKSGTASVVCLLNNFYPREAKVQWKVDNALQSGNSQESVTEQDSKDSTYSLSSTLTLSKADYEKHKVYACEVTHQGLSSPVTKSFNRGEC
IC50 (read off the curve): ~0.4 microgram/mL
